These results are taken from patent publication US20250122278A1, “ANTI-INTERLEUKIN-9 ANTIBODY AND USE THEREOF” (GUANGDONG KEGUANDA PHARMACEUTICAL TECHNOLOGY CO., LTD., priority 2022, published 2025).

The test system of experiment [1] is bleomycin mouse model of pulmonary fibrosis. The experiment can be described thus: Bleomycin mouse pulmonary fibrosis model. Format: in vivo. The note with it: bleomycin model, 21 d. The procedure:
(§1) 6 to 8-week-old male C57BL/6J mice (purchased from Guangdong Sijiajingda Biotechnology Co., Ltd., license No.: SCXK (Guangdong) 2020-0052) were grouped, modeled, and administered according to the protocols shown in Tables 6 and 7 below. The modeling with bleomycin (Nippon Kayaku, 15 mg powder, and dose: 1.5 mg/kg) and silica (SiO2, sigma, USA, S5631-500 g, and dose: 2.5 mg/mouse) was started on day 0 (DO). The administration was started on day 1 (D1), and normal saline was adopted as a solvent for an antibody. A positive drug pirfenidone (Beijing Kangdini Pharmaceutical Co., Ltd., 100 mg capsule) was adopted in a positive control group, and the humanized antibody hu.CA1 (VH1−VL2) of the present application was adopted in an anti-IL-9 antibody group.
(§2) A body weight of each mouse was measured every day. After the bleomycin model group was administered for 21 d and the silica model group was administered for 30 d, mice were sacrificed to collect lung tissues. The lung tissues each were stained to detect pathological changes in the lung tissues. Specifically, a degree of alveolar inflammation was detected through HE staining (an HE staining kit was purchased from Shanghai Beyotime Biotechnology, C0105M). A degree of pulmonary fibrosis was detected through Masson staining (a Masson staining kit was purchased from Nanjing Jiancheng Institute of Biological Engineering, D026-1-2). Scoring criteria for the HE staining and Masson staining were shown in Table 8 and Table 9 below, respectively (as shown in references: Matute-Bello G, Downey G, Moore B B, et al. An official American Thoracic Society workshop report: features and measurements of experimental acute lung injury in animals. Am J Respir Cell Mol Biol. 2011; 44 (5): 725-738. doi: 10.1165/rcmb.2009-0210ST and Lee Hyun Ju, Goo Jin Mo, Kim Na Ra et al. Semiquantitative measurement of murine bleomycin-induced lung fibrosis in in vivo and postmortem conditions using microcomputed tomography: correlation with pathologic scores—initial results. [J].Invest Radiol, 2008, 43: 453-60).

For experiment [2], the system named is silica mouse model of pulmonary fibrosis. The experiment can be described thus: Silica mouse pulmonary fibrosis model. The format is in vivo, C57BL/6J mice. As to conditions: 30 d. The procedure: as §1, §2
Experiment [3] deals with T1, IL-9 (Homo sapiens, UniProt P15248).
T1 construct: pcDNA3.4-IL9 (19-144)-His (P15248); His (C); made in house; host or cells: 293F cells (transient transfection)
The experiment can be described thus: ELISA binding of humanized antibodies to the target antigen. As to conditions: ELISA of culture supernatant of 293F cells, control chimeric antibody CA1. Here is the method: ELISA was conducted according to a standard protocol to determine the affinity of a purified antibody for the IL-9-His recombinant protein. In short, the IL-9-His recombinant protein was diluted with sterile PBS and added at 100 μL/well to a 96-well plate. The plate was incubated at 4° C. overnight and then blocked with a blocking buffer. 100 μL of a purified anti-IL-9 antibody serially diluted was added to the plate, and the plate was incubated for 1 h at room temperature. PBS was added to a control well. The plate was washed with PBST 3 times. Then 100 μL of horseradish peroxidase (HRP)-labeled anti-mouse IgG H&L (BIODRAGON, CAT #BF03001) was added, and the plate was incubated for 1 h at room temperature. The plate was washed with PBST 3 times. Then a chromogenic reaction was conducted with a 3,3′,5,5′-tetramethylbenzidine (TMB) chromogenic solution at room temperature. An OD value in each well was read by a microplate reader. Data was processed with PRISM GraphPad, and curves were plotted. The EC50 value for each candidate antibody was calculated.
Humanized antibody expression vectors carrying a designed heavy-chain or light-chain sequence were transiently transfected into 293F cells in pairs, and then a resulting culture supernatant was collected. According to a standard protocol (with reference to part 5.1 in Example 1), with a human-mouse chimeric antibody CA1 constructed with VH and VL of the original murine antibody as a control, the binding of a humanized antibody to a target antigen was detected by ELISA. The method for ELISA was the same as described in 5.1 of Example 1. […] In the follow-up experiments, the four combinations of VH1−VL2, VH1−VL4, VH2−VL4, and VH3−VL4 (hu.CA1 to hu.CA4) were taken as examples for antibody purification and function testing. […]

Where [4] appears, read: antibody 100 μg i.p. every other day, pirfenidone 300 mg/kg intragastric daily.

T1 sequence (P15248 19-144): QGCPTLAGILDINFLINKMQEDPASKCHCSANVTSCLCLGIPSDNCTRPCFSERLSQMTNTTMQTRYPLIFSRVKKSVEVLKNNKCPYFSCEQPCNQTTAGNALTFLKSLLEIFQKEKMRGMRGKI

For the molecule `Cc1ccc(=O)n(-c2ccccc2)c1` [pirfenidone, reference compound], the “collagen fibers and fibrosis regions of lung tissues (Masson staining)” value in experiment [1] and in experiment [2] was “significantly reduced” each time. In addition, the inflammation score result in experiment [1] (HE staining, FIG. 9B) is “significantly reduce an inflammation score”; in experiment [2] (HE staining, FIG. 11B), “significantly reduce an inflammation score”. Further, the fibrosis score result is “significantly reduce a fibrosis score” in experiment [1] (Masson staining, FIG. 10B) and “reduce a fibrosis score” in experiment [2] (Masson staining, FIG. 12B). The “lung tissue structures (HE staining)” value in experiment [1] (setting [4]) and in experiment [2] (setting [4]) was “improved” throughout.

B1: VH3+VL4: humanized antibody, VH SEQ ID NO: 28, VL SEQ ID NO: 33 (antibody, V domains shown)
VH: EVQLVQSGAEVMKPGASVKVSCKATGYTFTGYWIEWVRLAPGQGLEWMGEILPGSGSTNYNQKLQGRVTFTADTSTNTAYMELRSLRSDDTAIYYCARRTYYYGIPEDYWGQGTLVTVSS
VL: DIVMTQSPKFLSASVGDRVTITCKASQNVGTNVAWHQQKPGQSPKPLIYSASYRYSGVPSRFTGSGSGTDFTLTISNLQPEDFAEYFCQQYNSYPLTFGAGTKLEIK
Take B1: the “binding to IL-9” value in experiment [3] is listed as “bind to IL-9 with high affinity”.

B2: VH1+VL1: humanized antibody, VH SEQ ID NO: 26, VL SEQ ID NO: 30 (antibody, V domains shown)
VH: EVQLKQSGAEVMKPGASVKVSCKATGYTFTGYWIEWVRLAPGHGLEWMGEILPGSGSTNYNQKFQGRVTFTADTSINTAYMELSRLRSDDTAIYYCARRTYYYGIPEDYWGQGTLVTVSS
VL: DIVMTQSQKFLSTSVGDRVTITCRASQNVGTNVAWHQQKPGQSPKPLIYSASYRYSGVPSRFTGSGSGTDFTLTISNLQPEDFAEYFCQQYNSYPLTFGAGTKLEIK
As for B2, the “binding to IL-9” value in experiment [3] was “bind to IL-9 with high affinity”.

B3: VH3+VL1: humanized antibody, VH SEQ ID NO: 28, VL SEQ ID NO: 30 (antibody, V domains shown)
VH: EVQLVQSGAEVMKPGASVKVSCKATGYTFTGYWIEWVRLAPGQGLEWMGEILPGSGSTNYNQKLQGRVTFTADTSTNTAYMELRSLRSDDTAIYYCARRTYYYGIPEDYWGQGTLVTVSS
VL: DIVMTQSQKFLSTSVGDRVTITCRASQNVGTNVAWHQQKPGQSPKPLIYSASYRYSGVPSRFTGSGSGTDFTLTISNLQPEDFAEYFCQQYNSYPLTFGAGTKLEIK
B3: in experiment [3], the “binding to IL-9” value is “bind to IL-9 with high affinity”.

B4: VH3+VL3: humanized antibody, VH SEQ ID NO: 28, VL SEQ ID NO: 32 (antibody, V domains shown)
VH: EVQLVQSGAEVMKPGASVKVSCKATGYTFTGYWIEWVRLAPGQGLEWMGEILPGSGSTNYNQKLQGRVTFTADTSTNTAYMELRSLRSDDTAIYYCARRTYYYGIPEDYWGQGTLVTVSS
VL: DIVMTQSPKFVSTSVGDRVTITCRASQNVGTNVAWHQQKPGQSPKPLIYSASYRYSGVPSRFTGSGSGTDFTLTISNLQPEDFAEYFCQQYNSYPLTFGAGTKLEIK
Consider B4, for which the “binding to IL-9” value in experiment [3] is on record as “bind to IL-9 with high affinity”.

B5: VH2+VL4: humanized antibody, VH SEQ ID NO: 27, VL SEQ ID NO: 33 (antibody, V domains shown)
VH: EVQLVQSGAEVMKPGASVKVSCKATGYTFTGYWIEWVRLAPGQGLEWMGEILPGSGSTNYNQKFQGRVTFTADTSTNTAYMELSSLRSEDTAIYYCARRTYYYGIPEDYWGQGTLVTVSS
VL: DIVMTQSPKFLSASVGDRVTITCKASQNVGTNVAWHQQKPGQSPKPLIYSASYRYSGVPSRFTGSGSGTDFTLTISNLQPEDFAEYFCQQYNSYPLTFGAGTKLEIK
As for B5, the “binding to IL-9” value in experiment [3] is given as “bind to IL-9 with high affinity”.

B6: VH1+VL3: humanized antibody, VH SEQ ID NO: 26, VL SEQ ID NO: 32 (antibody, V domains shown)
VH: EVQLKQSGAEVMKPGASVKVSCKATGYTFTGYWIEWVRLAPGHGLEWMGEILPGSGSTNYNQKFQGRVTFTADTSINTAYMELSRLRSDDTAIYYCARRTYYYGIPEDYWGQGTLVTVSS
VL: DIVMTQSPKFVSTSVGDRVTITCRASQNVGTNVAWHQQKPGQSPKPLIYSASYRYSGVPSRFTGSGSGTDFTLTISNLQPEDFAEYFCQQYNSYPLTFGAGTKLEIK
As for B6, the “binding to IL-9” value in experiment [3] was “bind to IL-9 with high affinity”.

B7: VH4+VL1: humanized antibody, VH SEQ ID NO: 29, VL SEQ ID NO: 30 (antibody, V domains shown)
VH: EVQLKQSGAEVMKPGASVKLSCKATGYTFTGYWIEWVKLAPGHGLEWIGEILPGSGSTNYNEEFQGRVTFTADTSSNTAYMELSRLRSDDTAIYYCARRTYYYGIPEDYWGQGTLVTVSS
VL: DIVMTQSQKFLSTSVGDRVTITCRASQNVGTNVAWHQQKPGQSPKPLIYSASYRYSGVPSRFTGSGSGTDFTLTISNLQPEDFAEYFCQQYNSYPLTFGAGTKLEIK
Consider B7, for which the “binding to IL-9” value in experiment [3] is listed as “bind to IL-9 with high affinity”.

B8: VH2+VL1: humanized antibody, VH SEQ ID NO: 27, VL SEQ ID NO: 30 (antibody, V domains shown)
VH: EVQLVQSGAEVMKPGASVKVSCKATGYTFTGYWIEWVRLAPGQGLEWMGEILPGSGSTNYNQKFQGRVTFTADTSTNTAYMELSSLRSEDTAIYYCARRTYYYGIPEDYWGQGTLVTVSS
VL: DIVMTQSQKFLSTSVGDRVTITCRASQNVGTNVAWHQQKPGQSPKPLIYSASYRYSGVPSRFTGSGSGTDFTLTISNLQPEDFAEYFCQQYNSYPLTFGAGTKLEIK
On to B8, for which the “binding to IL-9” value in experiment [3] is listed as “bind to IL-9 with high affinity”.

B9: VH2+VL3: humanized antibody, VH SEQ ID NO: 27, VL SEQ ID NO: 32 (antibody, V domains shown)
VH: EVQLVQSGAEVMKPGASVKVSCKATGYTFTGYWIEWVRLAPGQGLEWMGEILPGSGSTNYNQKFQGRVTFTADTSTNTAYMELSSLRSEDTAIYYCARRTYYYGIPEDYWGQGTLVTVSS
VL: DIVMTQSPKFVSTSVGDRVTITCRASQNVGTNVAWHQQKPGQSPKPLIYSASYRYSGVPSRFTGSGSGTDFTLTISNLQPEDFAEYFCQQYNSYPLTFGAGTKLEIK
For the molecule B9, the “binding to IL-9” value in experiment [3] is reported as “bind to IL-9 with high affinity”.

B10: VH4+VL3: humanized antibody, VH SEQ ID NO: 29, VL SEQ ID NO: 32 (antibody, V domains shown)
VH: EVQLKQSGAEVMKPGASVKLSCKATGYTFTGYWIEWVKLAPGHGLEWIGEILPGSGSTNYNEEFQGRVTFTADTSSNTAYMELSRLRSDDTAIYYCARRTYYYGIPEDYWGQGTLVTVSS
VL: DIVMTQSPKFVSTSVGDRVTITCRASQNVGTNVAWHQQKPGQSPKPLIYSASYRYSGVPSRFTGSGSGTDFTLTISNLQPEDFAEYFCQQYNSYPLTFGAGTKLEIK
For B10, the “binding to IL-9” value in experiment [3] is reported as “bind to IL-9 with high affinity”.
